# Measurements published in patent publication US20230279125A1 (published 2023).
# Numbering of substitutions follows the chain as printed.
# T1: extracellular domain of human IL28RA (human, UniProt Q8IU57 21-228)
# T1 construct: Plates were 'coated with IL28RA'; also called hIL28RA ECD antigen; hIL28RA
# T1 sequence: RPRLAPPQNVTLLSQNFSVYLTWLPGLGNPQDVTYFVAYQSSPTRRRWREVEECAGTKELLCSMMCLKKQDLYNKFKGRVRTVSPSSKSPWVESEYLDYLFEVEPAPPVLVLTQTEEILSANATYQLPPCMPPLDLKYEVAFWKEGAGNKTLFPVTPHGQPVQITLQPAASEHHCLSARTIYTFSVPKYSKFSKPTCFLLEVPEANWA
# B1: hIL28RA VHH11 (VHH, not shown: large carriers)
# VHH: QVQLQESGGGSVQSGGSLRLSCAASGFTYSSYCMGWFRQAPGKEREGVAAIDSDGSTSYADSVKGRFTISKDNAKNTLYLQMNSLRPEDTAMYYCAADGEYNDYVCWSTGLRYRGQGTQVTVSS
# notes: Camel VHH tested as periplasmic extract of a phage clone (PE-ELISA); also called anti-human IL28RA VHH
# B2: hIL28RA VHH5 (VHH, not shown: large carriers)
# VHH: QVQLQESGGGLVQPGGSLRLSCAASGFTFSNATMSWVRQAPGKEIEWVSAISNSRGTKYYAAFVKGRFTISRDNAKNTLYLQLNNLKTEDTAMYYCTKDWKTSYSDYDLSDGQGTQVTVSS
# notes: as for B1
# B3: hIL28RA VHH13 (VHH, not shown: large carriers)
# VHH: B2 VHH with G16S
# notes: as for B1
# B4: hIL28RA VHH10 (VHH, not shown: large carriers)
# VHH: QVQLQESGGGSVQAGGSLRLSCASSGYISSRSTYCMGWFRQAPGKEREVAAVVTGDSRTYYGDSVKGRFAISRDNAKNTLYLQMNSLKPEDTAMYYCAAGPPPCITTMPAGGDYGYRYWGQGTQVTVSS
# notes: as for B1
# B5: hIL28RA VHH12 (VHH, not shown: large carriers)
# VHH: B4 VHH with V52I, K66R, T107S
# notes: as for B1
# B6: hIL28RA VHH14 (VHH, not shown: large carriers)
# VHH: QVQLQESGGGSVQAGGSLRLSCASSGYISRSSYCMGWFRQAPGKEREVAAIVTGDGRTYYGDSVKGRFAISRDNAKNTLYLQMNSLKPEDTAMYYCVAGPPPCITTMPAGGDYGYRYWGRGTQVTVSS
# notes: as for B1
# B7: hIL28RA VHH4 (VHH, not shown: large carriers)
# VHH: QVQLQESGGGSVQLGGSLRLSCLVSGSTDNIKYMGWFRQAPGKEREGVAAVYTSGGAVVYADSVKGRFTISQDDAKNTMYLQMNSLKPEDTAMYYCAASRAPAPPRLLLQRALVEYWGQGTQVTVSS
# notes: as for B1
# B8: hIL28RA VHH7 (VHH, not shown: large carriers)
# VHH: QVQLQESGGGLVQPGGSLRLSCAASGFTFSNYGMSWVRQAPGKGLEWVSGINSGGDDTFYTDSVKGRFTISRDNAKNTLYLQMNSLKTEDTAMYYCAMGASGMIPRGQGTQVTVSS
# notes: as for B1
# B9: hIL28RA VHH9 (VHH, not shown: large carriers)
# VHH: B8 VHH with A75V
# notes: as for B1
# B10: hIL28RA VHH2 (VHH, not shown: large carriers)
# VHH: B8 VHH with V112I
# notes: as for B1
# B11: hIL28RA VHH8 (VHH, not shown: large carriers)
# VHH: QVQLQESGGGSVQAGGSLRLSCAVSRYTISRSDCMGWFRQAPGKEREGVARIGSDGTTSYADSVKERFTISKDNAKNILYLQMNSLKPEDTARYYCAATALLLGRGSACHKEVSVFSWWGQGTQVTVSS
# notes: as for B1
# B12: hIL28RA VHH1 (VHH, not shown: large carriers)
# VHH: QVQLQESGGGSVQAGGSLRLSCASSGYISSSYCMAWFRQAPGKEREGAAGVTRDGKTYYGDSVKGRFAISRDNAKNTLYLQMNSLKPEDTAMYYCAAGPPPCITSMPAGGDYGYRYWGQGTQVTVSS
# notes: as for B1
# B13: hIL28RA VHH3 (VHH, not shown: large carriers)
# VHH: QVQLQESGGGLVQPGGSLRLSCVASGFTFSDYAMSWVRQAPGMGLERVSAIGRDGSTFYPDSVKGRFTISRDNAKNTLYLQLNSLKTEDTAMYYCAKEEPGSSSRGQGTQVTVSS
# notes: as for B1
# B14: hIL28RA VHH6 (VHH, not shown: large carriers)
# VHH: B13 VHH with V23A
# notes: as for B1
# Biological target: T1, extracellular domain of human IL28RA
# Experiment: periplasmic extract ELISA on IL28RA-coated plates, A450 at least threefold over PBS-coated control
# Experimental: Upon completion of the biopanning of Example 3, three 96-well plates of individual phage clones were isolated in order to perform periplasmic extract ELISA (PE-ELISA) on IL28RA coated plates to identify positive VHH binders that selectively bound IL28RA . A 96-well plate was coated with IL28RA and PBS under the same conditions. Next, wells were blocked at 37° C. for 1 h. Then, 100 µl of extracted antibodies was added to each well and incubated for 1 h. Subsequently, 100 µl of anti-tag polyclonal antibody conjugated to HRP was added to each well and incubated at 37° C. for 1 h. Plates were developed with TMB substrate. The reaction was stopped by the addition of H2SO4. Absorbance at 450 nm was read on a microtiter plate reader. […] Positive clones were sequenced, and sequences analyzed to identify unique clonotypes
row,Binder,binding result
1,B1,binds
2,B2,binds
3,B3,binds
4,B4,binds
5,B5,binds
6,B6,binds
7,B7,binds
8,B8,binds
9,B9,binds
10,B10,binds
11,B11,binds
12,B12,binds
13,B13,binds
14,B14,binds
